# Laboratory results: patent US20150203577A1 (Chugai, published 2015)
# T1: mouse FcγRII (mouse, UniProt P08101 30-210)
# T1 construct: Extracellular domain with C-terminal His tag; also called mFcγRII; mFcgRII
# T1 sequence: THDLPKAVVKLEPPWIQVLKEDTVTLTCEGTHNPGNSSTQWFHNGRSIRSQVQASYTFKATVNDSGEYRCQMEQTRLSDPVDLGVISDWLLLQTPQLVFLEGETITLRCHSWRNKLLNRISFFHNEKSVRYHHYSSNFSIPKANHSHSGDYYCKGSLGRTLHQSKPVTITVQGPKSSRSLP
# T2: mouse FcγRIII (mouse, UniProt P08508 31-215)
# T2 construct: Extracellular domain with C-terminal His tag; also called mFcγRIII; mFcgRIII
# T2 chain: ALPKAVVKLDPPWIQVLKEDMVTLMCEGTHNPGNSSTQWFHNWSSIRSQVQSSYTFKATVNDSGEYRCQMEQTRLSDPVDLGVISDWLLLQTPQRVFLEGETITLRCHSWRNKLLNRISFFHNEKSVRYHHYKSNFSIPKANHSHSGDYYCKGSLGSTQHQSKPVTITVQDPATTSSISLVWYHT
# Experiments:
# [1] = biological target: T1, mouse FcγRII; test: SPR (Biacore T200); KD of H237-MB630/MRAL-k0 / KD of variant
# Source text: (§1) The antibody H chain variable region used was the variable region H237 (SEQ ID NO: 1) of the H chain VH3-IgG1 of the anti-IL-6 receptor antibody Fv4-IgG1 described in WO2009/125825. The antibody L chain commonly used was the L chain MRAL-k0 (SEQ ID NO: 2) of the anti-IL-6 receptor antibody tocilizumab. […] These variants were expressed and purified by the method of Reference Example 1 and evaluated for their binding to mFcγRII and mFcγRIII by the method of Reference Example 2 using Biacore T200.
# (§2) Each altered antibody was analyzed for its interaction with each Fcγ receptor prepared above using Biacore T100 (GE Healthcare Japan Corp.), Biacore T200 (GE Healthcare Japan Corp.), Biacore A100, or Biacore 4000. The running buffer used was HBS-EP+ (GE Healthcare Japan Corp.). The assay temperature was set to 25° C. The sensor chips used were chips prepared by immobilizing Protein L (ACTIGEN or BioVision) onto Series S Sensor Chip CM5 (GE Healthcare Japan Corp.) or Series S Sensor Chip CM4 (GE Healthcare Japan Corp.) by the amine coupling method.
# (§3) In order to calculate the KD value of each altered antibody for FcγR, kinetic analysis was conducted according to the following method: first, the antibody of interest was captured onto any of these chips and allowed to interact with mFcγR diluted with a running buffer. For the obtained sensorgram, the assay results were globally fit into the 1:1 Langmuir binding model using Biacore Evaluation Software to calculate an association rate constant ka (L/mol/s) and a dissociation rate constant kd (1/s). From these values, the dissociation constant KD (mol/L) was calculated.
# [2] = biological target: T2, mouse FcγRIII; test: as above
# Source text: as §1, §2, §3
# [3] = biological target: T1, mouse FcγRII; test: SPR (Biacore T200); KD of H237-mIgG1/MRAL-k0 / KD of variant
# Source text: as §1, §2
# [4] = biological target: T2, mouse FcγRIII; test: as above
# Source text: as §1, §2
Relative mFcγRII-binding activity (MB630 = 1) [1] [fold],Relative mFcγRIII-binding activity (MB630 = 1) [2] [fold],relative mFcγRII-binding activity (mIgG1 = 1) [3] [fold],relative mFcγRIII-binding activity (mIgG1 = 1) [4] [fold],Binder
1.23,1.4,13.3,0.24,"MB770 (antibody, mouse IgG1, kappa, CH name; VH H237 + CH, L chain MRAL-k0; copies: 2 + 2) heavy: QVQLQESGPGLVKPSETLSLTCAVSGHSISHDHAWSWVRQPPGEGLEWIGFISYSGITNYNPSLQGRVTISRDNSKNTLYLQMNSLRAEDTAVYYCARSLARTTAMDYWGEGTLVTVSSAKTTPPSVYPLAPGSAAQTNSMVTLGCLVKGYFPEPVTVTWNSGSLSSGVHTFPAVLQSDLYTLSSSVTVPSSTWPSETVTCNVAHPASSTKVDKKIVPRDCGCKPCICEPNEVELVFIFPPKPKDVLTITLTPKVTCVVVDISKDDPEVQFSWFVDDVEVHTAQTQPREEQFNSTFRSVSELPIMHQDWLNGKEFKCRVNSAAFPAFIEKTISKTKGRPKAPQVYTIPPPKEQMAKDKVSLTCMITDFFPEDITVEWQWNGQPAENYKNTQPIMDTDGSYFVYSKLNVQKSNWEAGNTFTCSVLHEGLHNHHTEKSLSHSPGK light: not shown"
0.31,0.38,3.3,0.06,"MB769 (antibody, mouse IgG1, kappa, CH name; VH H237 + CH, L chain MRAL-k0; copies: 2 + 2) heavy: QVQLQESGPGLVKPSETLSLTCAVSGHSISHDHAWSWVRQPPGEGLEWIGFISYSGITNYNPSLQGRVTISRDNSKNTLYLQMNSLRAEDTAVYYCARSLARTTAMDYWGEGTLVTVSSAKTTPPSVYPLAPGSAAQTNSMVTLGCLVKGYFPEPVTVTWNSGSLSSGVHTFPAVLQSDLYTLSSSVTVPSSTWPSETVTCNVAHPASSTKVDKKIVPRDCGCKPCICEPNEVELVFIFPPKPKDVLTITLTPKVTCVVVDISKDDPEVQFSWFVDDVEVHTAQTQPREEQFNSTFRSVSELPIMHQDWLNGKEFKCRVNSAAFPADIEKTISKTKGRPKAPQVYTIPPPKEQMAKDKVSLTCMITDFFPEDITVEWQWNGQPAENYKNTQPIMDTDGSYFVYSKLNVQKSNWEAGNTFTCSVLHEGLHNHHTEKSLSHSPGK light: not shown"
0.5,0.81,5.4,0.14,"MB768 (antibody, mouse IgG1, kappa, CH name; VH H237 + CH, L chain MRAL-k0; copies: 2 + 2) heavy: QVQLQESGPGLVKPSETLSLTCAVSGHSISHDHAWSWVRQPPGEGLEWIGFISYSGITNYNPSLQGRVTISRDNSKNTLYLQMNSLRAEDTAVYYCARSLARTTAMDYWGEGTLVTVSSAKTTPPSVYPLAPGSAAQTNSMVTLGCLVKGYFPEPVTVTWNSGSLSSGVHTFPAVLQSDLYTLSSSVTVPSSTWPSETVTCNVAHPASSTKVDKKIVPRDCGCKPCICEPNEVELVFIFPPKPKDVLTITLTPKVTCVVVDISKDDPEVQFSWFVDDVEVHTAQTQPREEQFNSTFRSVSELPIMHQDWLNGKEFKCRVNSAAFPQPIEKTISKTKGRPKAPQVYTIPPPKEQMAKDKVSLTCMITDFFPEDITVEWQWNGQPAENYKNTQPIMDTDGSYFVYSKLNVQKSNWEAGNTFTCSVLHEGLHNHHTEKSLSHSPGK light: not shown"
1.27,1.53,13.8,0.26,"MB771 (antibody, mouse IgG1, kappa, CH name; VH H237 + CH, L chain MRAL-k0; copies: 2 + 2) heavy: QVQLQESGPGLVKPSETLSLTCAVSGHSISHDHAWSWVRQPPGEGLEWIGFISYSGITNYNPSLQGRVTISRDNSKNTLYLQMNSLRAEDTAVYYCARSLARTTAMDYWGEGTLVTVSSAKTTPPSVYPLAPGSAAQTNSMVTLGCLVKGYFPEPVTVTWNSGSLSSGVHTFPAVLQSDLYTLSSSVTVPSSTWPSETVTCNVAHPASSTKVDKKIVPRDCGCKPCICEPNEVELVFIFPPKPKDVLTITLTPKVTCVVVDISKDDPEVQFSWFVDDVEVHTAQTQPREEQFNSTFRSVSELPIMHQDWLNGKEFKCRVNSAAFPAYIEKTISKTKGRPKAPQVYTIPPPKEQMAKDKVSLTCMITDFFPEDITVEWQWNGQPAENYKNTQPIMDTDGSYFVYSKLNVQKSNWEAGNTFTCSVLHEGLHNHHTEKSLSHSPGK light: not shown"

# Further lines, the binder ahead of its results:
Binder,Relative mFcγRII-binding activity (MB630 = 1) [1] [fold],Relative mFcγRIII-binding activity (MB630 = 1) [2] [fold],relative mFcγRII-binding activity (mIgG1 = 1) [3] [fold],relative mFcγRIII-binding activity (mIgG1 = 1) [4] [fold]
"MB764 (antibody, mouse IgG1, kappa, CH name; VH H237 + CH, L chain MRAL-k0; copies: 2 + 2) heavy: QVQLQESGPGLVKPSETLSLTCAVSGHSISHDHAWSWVRQPPGEGLEWIGFISYSGITNYNPSLQGRVTISRDNSKNTLYLQMNSLRAEDTAVYYCARSLARTTAMDYWGEGTLVTVSSAKTTPPSVYPLAPGSAAQTNSMVTLGCLVKGYFPEPVTVTWNSGSLSSGVHTFPAVLQSDLYTLSSSVTVPSSTWPSETVTCNVAHPASSTKVDKKIVPRDCGCKPCICEPNEVELVFIFPPKPKDVLTITLTPKVTCVVVDISKDDPEVQFSWFVDDVEVHTAQTQPREEQTNSTFRSVSELPIMHQDWLNGKEFKCRVNSAAFPAPIEKTISKTKGRPKAPQVYTIPPPKEQMAKDKVSLTCMITDFFPEDITVEWQWNGQPAENYKNTQPIMDTDGSYFVYSKLNVQKSNWEAGNTFTCSVLHEGLHNHHTEKSLSHSPGK light: not shown",0.23,0.32,2.5,0.05
"MB766 (antibody, mouse IgG1, kappa, CH name; VH H237 + CH, L chain MRAL-k0; copies: 2 + 2) heavy: QVQLQESGPGLVKPSETLSLTCAVSGHSISHDHAWSWVRQPPGEGLEWIGFISYSGITNYNPSLQGRVTISRDNSKNTLYLQMNSLRAEDTAVYYCARSLARTTAMDYWGEGTLVTVSSAKTTPPSVYPLAPGSAAQTNSMVTLGCLVKGYFPEPVTVTWNSGSLSSGVHTFPAVLQSDLYTLSSSVTVPSSTWPSETVTCNVAHPASSTKVDKKIVPRDCGCKPCICEPNEVELVFIFPPKPKDVLTITLTPKVTCVVVDISKDDPEVQFSWFVDDVEVHTAQTQPREEQFNSTFRSVSELPIMHQDWLNGKEFKCRVMSAAFPAPIEKTISKTKGRPKAPQVYTIPPPKEQMAKDKVSLTCMITDFFPEDITVEWQWNGQPAENYKNTQPIMDTDGSYFVYSKLNVQKSNWEAGNTFTCSVLHEGLHNHHTEKSLSHSPGK light: not shown",1.29,1.55,14,0.27
"MB765 (antibody, mouse IgG1, kappa, CH name; VH H237 + CH, L chain MRAL-k0; copies: 2 + 2) heavy: QVQLQESGPGLVKPSETLSLTCAVSGHSISHDHAWSWVRQPPGEGLEWIGFISYSGITNYNPSLQGRVTISRDNSKNTLYLQMNSLRAEDTAVYYCARSLARTTAMDYWGEGTLVTVSSAKTTPPSVYPLAPGSAAQTNSMVTLGCLVKGYFPEPVTVTWNSGSLSSGVHTFPAVLQSDLYTLSSSVTVPSSTWPSETVTCNVAHPASSTKVDKKIVPRDCGCKPCICEPNEVELVFIFPPKPKDVLTITLTPKVTCVVVDISKDDPEVQFSWFVDDVEVHTAQTQPREEQFNSTFRSVSELPIMHQDWLNGKEFKCRVLSAAFPAPIEKTISKTKGRPKAPQVYTIPPPKEQMAKDKVSLTCMITDFFPEDITVEWQWNGQPAENYKNTQPIMDTDGSYFVYSKLNVQKSNWEAGNTFTCSVLHEGLHNHHTEKSLSHSPGK light: not shown",0.49,0.64,5.3,0.11
"MB767 (antibody, mouse IgG1, kappa, CH name; VH H237 + CH, L chain MRAL-k0; copies: 2 + 2) heavy: QVQLQESGPGLVKPSETLSLTCAVSGHSISHDHAWSWVRQPPGEGLEWIGFISYSGITNYNPSLQGRVTISRDNSKNTLYLQMNSLRAEDTAVYYCARSLARTTAMDYWGEGTLVTVSSAKTTPPSVYPLAPGSAAQTNSMVTLGCLVKGYFPEPVTVTWNSGSLSSGVHTFPAVLQSDLYTLSSSVTVPSSTWPSETVTCNVAHPASSTKVDKKIVPRDCGCKPCICEPNEVELVFIFPPKPKDVLTITLTPKVTCVVVDISKDDPEVQFSWFVDDVEVHTAQTQPREEQFNSTFRSVSELPIMHQDWLNGKEFKCRVNSAAFPGPIEKTISKTKGRPKAPQVYTIPPPKEQMAKDKVSLTCMITDFFPEDITVEWQWNGQPAENYKNTQPIMDTDGSYFVYSKLNVQKSNWEAGNTFTCSVLHEGLHNHHTEKSLSHSPGK light: not shown",0.16,0.19,1.8,0.03
